The results in this text go back to patent US20190119331A1, “SYSTEM AND METHOD OF OPTOGENETICALLY CONTROLLING METABOLIC PATHWAYS FOR THE PRODUCTION OF CHEMICALS” (The Trustees of Princeton University, published 2019).

The target of experiment [1] is Gal4p-PSD fusion protein (yeast (Saccharomyces cerevisiae); Arabidopsis thaliana) (UniProt P04386).
Another experiment has as its target Gal4p (yeast (Saccharomyces cerevisiae), UniProt P04386). The experiment can be described thus: cell-based or functional assay.

B1: Gal80p (other)
chain: MDYNKRSSVSTVPNAAPIRVGFVGLNAAKGWAIKTHYPAILQLSSQFQITALYSPKIETSIATIQRLKLSNATAFPTLESFASSSTIDMIVIAIQVASHYEVVMPLLEFSKNNPNLKYLFVEWALACSLDQAESIYKAAAERGVQTIISLQGRKSPYILRAKELISQGYIGDINSIEIAGNGGWYGYERPVKSPKYIYEIGNGVDLVTTTFGHTIDILQYMTSSYFSRINAMVFNNIPEQELIDERGNRLGQRVPKTVPDHLLFQGTLLNGNVPVSCSFKGGKPTKKFTKNLVIDIHGTKGDLKLEGDAGFAEISNLVLYYSGTRANDFPLANGQQAPLDPGYDAGKEIMEVYHLRNYNAIVGNIHRLYQSISDFHFNTKKIPELPSQFVMQGFDFEGFPTLMDALILHRLIESVYKSNMMGSTLNVSNISHYSL
As for B1, the GFP expression from PGAL1-GFP reporter (GFP/OD600), blue light against dark, strain YEZ102 (OptoINVRT3) in experiment [1] is 70 fold. Besides, in the experiment with Gal4p, the “GFP expression from PGAL1-GFP reporter (GFP/OD600), blue light (GAL80 expressed) against dark, strain YEZ100 (OptoINVRT1, gal4 gal80 deleted background)” value worked out at 45.7 fold decrease.
